Data on two molecules can be found in patent US20240190940A1 (published 2024).

Test [1] concerns the target Q61K RAS 10-mer peptide … presented by HLA-A*01:01 on cells (human). Briefly: cell-based or functional assay.
Test [2] has as its target T1, NRAS Q61K (Q61K RAS; same sequence in KRAS and HRAS Q61K) peptide on HLA-A*01:01 (human).
T1 peptide: ILDTAGKEEY
The test is described as follows: multimer staining.

Test [3] concerns the target T2, NRAS Q61K peptide on HLA-C*07:01 (human).
T2 peptide: ILDTAGKEEY
The test is described as follows: cytokine release.

Test [4] concerns the target T3, NRAS Q61R peptide on HLA-A*01:01 (human).
T3 peptide: ILDTAGREEY
The test is described as follows: cytokine release.

Test [5] addresses T4, NRAS Q61K peptide on HLA-B*27:01 (human).
T4 peptide: ILDTAGKEEY
Briefly: cytokine release.

The target in test [6] is T5, NRAS Q61K peptide on HLA-A*02:01 (human).
T5 peptide: ILDTAGKEEY
The test is described as follows: cytokine release.

The target in test [7] is T6, NRAS Q61K peptide on HLA-B*08:01 (human).
T6 peptide: ILDTAGKEEY
The test is described as follows: cytokine release.

B1: TCR 3795, cysteine-substituted, LVL-modified chimeric TCR (human variable regions, murine constant regions) (TCR)
TCR alpha: AQKVTQAQTEISVVEKEDVTLDCVYETRDTTYYLFWYKQPPSGELVFLIRRNSFDEQNEISGRYSWNFQKSTSSFNFTITASQVVDSAVYFCALSESHNNAGNMLTFGGGTRLMVKPNIQNPEPAVYQLKDPRSQDSTLCLFTDFDSQINVPKTMESGTFITDKCVLDMKAMDSKSNGAIAWSNQTSFTCQDIFKETNATYPSSDVPCDATLTEKSFETDMNLNFQNLLVIVLRILLLKVAGFNLLMTLRLWSS
TCR beta: NAGVTQTPKFQVLKTGQSMTLQCAQDMNHNSMYWYRQDPGMGLRLIYYSASEGTTDKGEVPNGYNVSRLNKREFSLRLESAAPSQTSVYFCAASQNTEAFFGQGTRLTVVEDLRNVTPPKVSLFEPSKAEIANKQKATLVCLARGFFPDHVELSWWVNGKEVHSGVCTDPQAYKESNYSYCLSSRLRVSATFWHNPRNHFRCQVQFHGLSEEDKWPEGSPKPVTQNISAEAWGRADCGITSASYQQGVLSATILYEILLGKATLYAVLVSTLVVMAMVKRKNS
As to B1, the 4-1BB upregulation by TCR-transduced CD8+ effector cells (flow cytometry), autologous DC pulsed with various peptide concentrations in test [1] was more than 0.01 µg/ml.

B2: 3795 (TCR, V domains shown)
Valpha: AQKVTQAQTEISVVEKEDVTLDCVYETRDTTYYLFWYKQPPSGELVFLIRRNSFDEQNEISGRYSWNFQKSTSSFNFTITASQVVDSAVYFCALSESHNNAGNMLTFGGGTRLMVKP
Vbeta: NAGVTQTPKFQVLKTGQSMTLQCAQDMNHNSMYWYRQDPGMGLRLIYYSASEGTTDKGEVPNGYNVSRLNKREFSLRLESAAPSQTSVYFCAASQNTEAFFGQGTRLTVV
For B2, the binding result is “recognises” in test [2]; “no recognition” in test [3]; “no recognition” in test [4]; “no recognition” in test [5]; “no recognition” in test [6]; “no recognition” in test [7].
